Patent publication US20220016205A1, “METHODS OF OVERCOMING RESISTANCE TO IMMUNE CHECKPOINT INHIBITORS” (Board of Regents, The University of Texas System, priority 2018, published 2022)

Experiments:
RAW 264.7 cells = assay: qPCR in RAW 264.7 cells co-cultured with 344SQR cells (transwell) with follistatin or K02288; assay type: cell-based, murine; details: 344SQR co-culture plus follistatin versus 344SQR co-culture only, 24 or 48 hours (FIG. 3I)
Description: (§1) Quantitative polymerase chain reaction (qPCR). Total RNA was isolated from cells and tumors with Triazol (Life Technologies) according to the manufacturer's protocol. For studies of BMP7, p38α, IL-1α, IL-1β, TNF-α, RANTES, IL-2, and IFN-γ expression, mRNA was retrotranscribed with the iScript™ gDNA Clear cDNA Synthesis Kit (BioRad) and analyzed by qPCR using SYBR Green (Life Technologies) with specific primers according to the manufacturer's protocol. The comparative Ct method was used to calculate the relative abundance of mRNAs compared with ACTB (beta-actin) expression for cancer cells or CD45 expression for immune cells.
Co-culture experiments and treatments. Viable cells were counted with a hemocytometer (0.4% Trypan blue solution) and diluted to 40,000 cells per well in 24-wells plates. Cells from 344SQP, 344SQR, 344SQ ctrl, or 344SQ-shBMP7 tumors were seeded at the top inserts (24-mm Transwell with 0.4-μm pore polycarbonate membrane insert, Sigma-Aldrich), and RAW 264.7 or CD4^+ T cells were seeded at the bottom of the transwell system. […] RNA was then isolated from RAW 264.7 or CD4^+ T cells and analyzed for p38α, IL-1α, IL-1β, TNF-α, RANTES, IL-2 and IFN-γ expression with qPCR. […]

CD4^+ T cells = assay: qPCR of p38α, IFN-γ, IL-2 in CD4+ T cells co-cultured with 344SQR cells plus follistatin; assay type: cell-based, mouse; details: 344SQR co-culture plus follistatin versus 344SQR without follistatin, 24 hours (FIG. 4G)
Description: as §1
Co-culture experiments and treatments. Viable cells were counted with a hemocytometer (0.4% Trypan blue solution) and diluted to 40,000 cells per well in 24-wells plates. […] RNA was then isolated from RAW 264.7 or CD4^+ T cells and analyzed for p38α, IL-1α, IL-1β, TNF-α, RANTES, IL-2 and IFN-γ expression with qPCR.
Next, CD4^+ T cells were co-cultured with 344SQP or 344SQR cells, and 344SQR ctrl or 344SQR shBMP7 cells, and the expression of p38α, IFN-γ, and IL-2 analyzed. […] To confirm that these findings depended on BMP7 and not on some other secreted molecule, CD4^+ T cells were treated with BMP7 with or without follistatin and p38α, IFN-γ, and IL-2 expression evaluated. […]

344SQR tumors = assay: Tumor growth and survival of mice with anti-PD1-resistant 344SQR tumors treated with follistatin, anti-PD1 or both; assay type: in vivo, 129Sv/Ev mice; details: follistatin 0.1 mg/kg i.p. (with or without anti-PD1 10 mg/kg), 2 weeks
Method: In vivo studies. All mouse studies were approved by the Institutional Animal Care and Use Committee (IACUC) of The University of Texas MD Anderson Cancer Center before their initiation; animal care was provided according to IACUC standards, and all mice had been bred and were maintained in our own specific pathogen-free mouse colony. For RRBS, RPPA and TILs studies, primary tumors were established by subcutaneous injection of 344SQP or 344SQR cells (0.5×10^6 in 100 μL of sterile phosphate buffered saline [PBS]) into the leg of syngeneic 129Sv/Ev mice (female, 12-16 weeks old). Mice were then given intraperitoneal injections of anti-PD1 or control IgG antibodies (10 mg/kg) (Bio X cell), starting on day 4 after tumor cell inoculation and continuing twice per week for a total of 4 doses. At 24 hours after the last anti-PD1 treatment, tumor tissues were collected for DNA (2 mice/group) and protein isolation (2 or 3 mice/group). For TILs isolation, tumor tissues (3 mice/group) were collected a week after the last treatment with anti-PD1. […] Tumors were measured with calipers three times per week and recorded as tumor volume (in mm^3)=width^2×length/2. […] Mouse survival rates were analyzed by using the Kaplan-Meier method and compared with log-rank tests.

B1: follistatin: BMP7 antagonist protein, natural inhibitor of BMP7 (R&D Systems, Catalog #769-FS-025) (protein, UniProt P19883 30-344, looked up)
Follistatin: GNCWLRQAKNGRCQVLYKTELSKEECCSTGRLSTSWTEEDVNDNTLFKWMIFNGGAPNCIPCKETCENVDCGPGKKCRMNKKNKPRCVCAPDCSNITWKGPVCGLDGKTYRNECALLKARCKEQPELEVQYQGRCKKTCRDVFCPGSSTCVVDQTNNAYCVTCNRICPEPASSEQYLCGNDGVTYSSACHLRKATCLLGRSIGLAYEGKCIKAKSCEDIQCTGGKKCLWDFKVGRGRCSLCDELCPDSKSDEPVCASDNATYASECAMKEAACSSGVLLEVKHSGSCNSISEDTEEEEEDEDQDYSFPISSILEW
For B1, the “expression of p38a and p38α-regulated cytokines and chemokines” value (RAW 264.7 cells) was “higher expression”, the “expression of p38α, IFN-γ, and IL-2” value (CD4^+ T cells) was “higher expression” and the tumor growth (344SQR tumors; compared with anti-PD1 therapy only (FIG. 5C)) was “decreased tumor growth”. For the same molecule, the survival (344SQR tumors; compared with anti-PD1 therapy only, Kaplan-Meier (FIG. 5C)) was “extended survival”.
